Paper PMC9475553, “SHF Acts as a Novel Tumor Suppressor in Glioblastoma Multiforme by Disrupting STAT3 Dimerization” (Advanced Science, 2022)

System: GBM cells
Experiment: Annexin V flow cytometry apoptosis assay
Type: cell-based, human
Conditions: 25 uM stated adequate for subsequent experiments, n=3
Method: Cell apoptosis was detected by flow cytometry according to the manufacturer's instructions of the Annexin V‐FITC Apoptosis Detection Kit (KeyGen Biotech, China). Briefly, cells were incubated with Doxorubicin (DOX, 2 µM) for 48 h. Cells were harvested and rinsed with ice‐cold PBS and then resuspended in 200 µL of binding buffer. 10 mL of AV‐FITC stock solution was added to cell suspensions and incubated for 15 min at RT. Cells were further rinsed with 200 µL ice‐cold PBS and immediately analyzed by a FACScan flow cytometry.
Supplementary Fig. 9 C16 inhibits tumor growth and promotes chemosensitivity in vitro.
B. Colony formation of cells treated with SC or C16 (left) and the accompanying statistical
analysis (right; n=6, Student’s t-test, **P < 0.01).
C. Annexin V staining flow cytometry assay of cells simultaneously treated with Dox with SC or
C16 for 48 h (n=3, Student’s t-test, *P < 0.05, **P < 0.01).
(1 picture or pasted object on this page, not shown here)

Question: With “C16: peptide spanning SHF amino acids 388–421, palmitic acid at the N-terminus, amidated C-terminus, 3× His tags added to the C-terminal (PFSSVPEIVHHYASRKLPIKGAEHMSLLYPVAIR; palmitic acid at the N-terminus; amidated C-terminus; left off: 3× His tags, C-terminal, kept)” as the substance, how does the spontaneous apoptosis (C16 vs SC) read?
Answer: The spontaneous apoptosis was “without increasing spontaneous apoptosis”.

Question: And the “chemosensitivity (apoptosis with Dox)” value (simultaneous Dox with SC or C16 for 48 h)?
Answer: The value was “promoted chemosensitivity”.
